We go through 2 molecules from patent US20040171105A1 (published 2004).

Experiment [1] deals with T1, GST fusion form of full-length human cIAP1 (human, UniProt Q13490 1-618).
T1 construct: Full-length cIAP1 fused to GST, expressed in E. coli BL21(DE3); also called GST-cIAP1; full-length cIAP1 (GST-fused); not shown: N-terminal glutathione S-transferase of pGEX-4T-2 with thrombin cleavage site
The experiment can be described thus: GST pulldown on Glutathione Sepharose beads, Western blot (anti-GST, anti-Penta-His). On the procedure:
To examine whether the differential in catalytic efficiency between Omi WT and OmiΔ8 was due to different binding affinities to IAPs, a GST-based pulldown assay was used to monitor the IAP binding affinities of Omi WT and OmiΔ8. Full-length cIAP1 (50 nM) was incubated with 100 nM of Omi WT and Omi mutants for 20 minutes at 4° C. in 50 μl of PBST. The samples were then incubated with 20 μl of Glutathione Sepharose beads (Amersham Biosciences, Piscataway, N.J.) for 30 minutes at 4° C. The beads were precipitated by centrifugation and washed briefly with 1.4 ml×3 of PBST. The proteins bound to the beads and left in the supernatant were separately mixed with SDS sample loading buffer and resolved by SDS-PAGE, then transferred to a nitrocellulose filter. The upper part of the filter was probed with an antibody against GST and the lower part with an antibody against Penta-His.

The target of experiment [2] is T1, GST fusion form of full-length human …. The experiment can be described thus: cell-based or functional assay.
Experiment [3] deals with T2, Omi WT (wild-type mature Omi/HtrA2, C-terminal hexa-His tagged, recombinant from E. coli) (Homo sapiens (humans), UniProt O43464 134-458).
T2 construct: Any N-terminal Met from Nde I cloning is not discussed for the bacterial protein; also called wild-type Omi; PRSS25
T2 sequence: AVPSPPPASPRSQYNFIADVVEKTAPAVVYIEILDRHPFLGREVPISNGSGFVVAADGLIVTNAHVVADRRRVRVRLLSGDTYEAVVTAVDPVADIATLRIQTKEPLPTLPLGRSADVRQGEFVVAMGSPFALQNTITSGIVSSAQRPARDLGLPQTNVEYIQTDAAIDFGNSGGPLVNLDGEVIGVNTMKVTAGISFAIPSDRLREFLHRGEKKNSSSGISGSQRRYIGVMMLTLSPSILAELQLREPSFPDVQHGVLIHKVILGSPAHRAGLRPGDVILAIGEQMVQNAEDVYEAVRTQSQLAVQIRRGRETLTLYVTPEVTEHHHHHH
The experiment can be described thus: immunoprecipitation assay (data not shown).

T1 sequence (Q13490 whole entry, the tested form may be a part): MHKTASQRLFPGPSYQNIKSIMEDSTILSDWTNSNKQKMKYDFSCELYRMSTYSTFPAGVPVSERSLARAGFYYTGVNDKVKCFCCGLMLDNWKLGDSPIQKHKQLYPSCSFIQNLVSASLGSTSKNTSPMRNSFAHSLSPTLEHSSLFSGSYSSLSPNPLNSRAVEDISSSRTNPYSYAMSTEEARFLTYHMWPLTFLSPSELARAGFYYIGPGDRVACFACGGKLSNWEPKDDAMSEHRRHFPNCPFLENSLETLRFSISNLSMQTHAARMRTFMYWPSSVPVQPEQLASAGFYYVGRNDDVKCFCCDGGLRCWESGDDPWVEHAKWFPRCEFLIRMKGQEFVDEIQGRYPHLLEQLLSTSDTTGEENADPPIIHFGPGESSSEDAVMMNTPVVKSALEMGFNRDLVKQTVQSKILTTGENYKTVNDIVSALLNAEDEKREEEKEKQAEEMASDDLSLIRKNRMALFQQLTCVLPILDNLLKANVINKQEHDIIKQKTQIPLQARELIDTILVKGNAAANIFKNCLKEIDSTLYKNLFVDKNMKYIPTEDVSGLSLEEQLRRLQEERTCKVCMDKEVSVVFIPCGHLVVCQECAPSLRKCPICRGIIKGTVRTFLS

B1: OmiΔ8 (Omi without the AVPS tetrapeptide, C-terminal hexa-His tagged) (enzyme)
chain: PPPASPRSQYNFIADVVEKTAPAVVYIEILDRHPFLGREVPISNGSGFVVAADGLIVTNAHVVADRRRVRVRLLSGDTYEAVVTAVDPVADIATLRIQTKEPLPTLPLGRSADVRQGEFVVAMGSPFALQNTITSGIVSSAQRPARDLGLPQTNVEYIQTDAAIDFGNSGGPLVNLDGEVIGVNTMKVTAGISFAIPSDRLREFLHRGEKKNSSSGISGSQRRYIGVMMLTLSPSILAELQLREPSFPDVQHGVLIHKVILGSPAHRAGLRPGDVILAIGEQMVQNAEDVYEAVRTQSQLAVQIRRGRETLTLYVTPEVTEHHHHHH
notes: The name Δ8 may mean that 8 residues were deleted in the tested construct; also called Omi?8; OmiΔAVPS
As for B1, the binding result in experiment [1] is on record as “no binding (tested: 100 nM Omi mutant with 50 nM cIAP1)”.

B2: Smac (purified recombinant) (other, UniProt Q9NR28 56-239, looked up)
chain: AVPIAQKSEPHSLSSEALMRRAVSLVTDSTSTFLSQTTYALIEAITEYTKAVYTLTSLYRQYTSLLGKMNSEEEDEVWQVIIGARAEMTSKHQEYLKLETTWMTAVGLSEMAAEAAYQTGADQASITARNHIQLVKLQVEEVHQLSRKAETKLAEAQIEELRQKTQEEGEERAESEQEAYLRED
notes: The construct is not described; also called Smac/DIABLO
Consider B2, for which the “relief of cIAP1 inhibition of caspase activity in HeLa extracts” value in experiment [2] amounted to 200 nM. Besides, the binding result in experiment [3] is recorded as “no binding”.
